Assays:
[1] = target: the molecule itself; experiment: native gel or EMSA; blue native PAGE, 20 ug purified CT-MRAP2 domain on Native PAGE Novex 3% to 16% Bis-Tris gels, 0 °C; blot with anti-His
[2] = target: the molecule itself; experiment: SDS-PAGE; purified zCT-MRAP2a, electrophoresis under denaturing conditions

B1: C-terminal domain of zebrafish MRAP2a, His-tagged (zCT-MRAP2a) (domain or fragment, UniProt F8W4H9 73-217, looked up)
chain: EAAEPYEKRMRLTSCADGLGRQRETDGRTGLSRPLLEESRSLFHCYINEEEREGGRAATDAGALTHGRSGIGNSRGQVEEVGLVVQNMVLESRAEREAALLAHFNIPNFVNSELNSALGDEDLLLGDPPIIMEEARPRCTHHIID
notes: zebrafish MRAP2a, C-terminal domain, the region from residue 73 to residue 217 encoded by the third exon; cloned by PCR from plasmid XM_021473026.1 into pet28; also called zCT-MRAP2a domain; pet 28zCT-MRAP2; source: E. coli, purified (His-tagged protein purification kit)
stoichiometry N [1]: ~2
stoichiometry N [2]: 2
